From US20120277286A1, “COMPOSITIONS AND METHODS FOR THE TREATMENT OR PREVENTION OF MITOCHONDRIAL DISEASES” (The Government of the USA, as represented by the Secretary, …, priority 2009, published 2012)
Where “and” joins values, the source holds several entries; their conditions need not be identical. Equal values may be shown once.

Test system: HeLa cells
Assay: Parkin colocalization with mitochondria scored by confocal microscopy
Format: cell-based
Conditions: for YFP-Parkin (wild type or indicated mutant) colocalization with mitochondria, % of cells: HeLa cells, 10 μM CCCP, 1 hour; for cells with YFP-Parkin co-localized with TMRE: HeLa, no CCCP, YFP-Parkin alone or with PINK1-myc 1:4
In short: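 Transfected HeLa cells fixed 12–24 h post-transfection in 4% paraformaldehyde. Cells immunostained for mitochondrial markers and imaged by confocal microscopy. Parkin recruitment to mitochondria assessed by line-scan colocalization.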

N#CC(C#N)=NNc1cccc(Cl)c1 [CCCP, carbonyl cyanide m-chlorophenylhydrazone]
YFP-Parkin (wild type or indicated mutant) colocalization with mitochondria, % of cells: 78.49±2.61% and 96.0±3.5%

B1: PINK1: exogenously expressed wild type PINK1 (V5 or myc tagged) (protein, UniProt Q9BXM7 78-581, looked up)
Serine/threonine-protein …: AARLQRQFVVRAWGCAGPCGRAVFLAFGLGLGLIEEKQAESRRAVSACQEIQAIFTQKSKPGPDPLDTRRLQGFRLEEYLIGQSIGKGCSAAVYEATMPTLPQNLEVTKSTGLLPGRGPGTSAPGEGQERAPGAPAFPLAIKMMWNISAGSSSEAILNTMSQELVPASRVALAGEYGAVTYRKSKRGPKQLAPHPNIIRVLRAFTSSVPLLPGALVDYPDVLPSRLHPEGLGHGRTLFLVMKNYPCTLRQYLCVNTPSPRLAAMMLLQLLEGVDHLVQQGIAHRDLKSDNILVELDPDGCPWLVIADFGCCLADESIGLQLPFSSWYVDRGGNGCLMAPEVSTARPGPRAVIDYSKADAWAVGAIAYEIFGLVNPFYGQGKAHLESRSYQEAQLPALPESVPPDVRQLVRALLQREASKRPSARVAANVLHLSLWGEHILALKNLKLDKMVGWLLQQSAATLLANRLTEKCCVETKMKMLFLANLECETLCQAALLLCSWRAAL
modifications: V5 or myc tag
cells with YFP-Parkin co-localized with TMRE: 45.3±7.6%

B2: YFP-Parkin: YFP-tagged Parkin E3 ligase expressed from a transfected vector (protein, UniProt O60260 1-465, looked up)
E3 ubiquitin-protein ligase …: MIVFVRFNSSHGFPVEVDSDTSIFQLKEVVAKRQGVPADQLRVIFAGKELRNDWTVQNCDLDQQSIVHIVQRPWRKGQEMNATGGDDPRNAAGGCEREPQSLTRVDLSSSVLPGDSVGLAVILHTDSRKDSPPAGSPAGRSIYNSFYVYCKGPCQRVQPGKLRVQCSTCRQATLTLTQGPSCWDDVLIPNRMSGECQSPHCPGTSAEFFFKCGAHPTSDKETSVALHLIATNSRNITCITCTDVRSPVLVFQCNSRHVICLDCFHLYCVTRLNDRQFVHDPQLGYSLPCVAGCPNSLIKELHHFRILGEEQYNRYQQYGAEECVLQMGGVLCPRPGCGAGLLPEPDQRKVTCEGGNGLGCGFAFCRECKEAYHEGECSAVFEASGTTTQAYRVDERAAEQARWEAASKETIKKTTKPCPRCHVPVEKNGGCMHMKCPQPQCRLEWCWNCGCEWNRVCMGDHWFDV
modifications: YFP fusion
notes: YFP-tagged Parkin E3 ligase expressed from a transfected vector
YFP-Parkin (wild type or indicated mutant) colocalization with mitochondria, % of cells: 94.7±5.8%
cells with YFP-Parkin co-localized with TMRE: 0±0%
